{"source": "paper PMC9765456", "target": "AP2-μ2 (plasmid-encoded: μ2-HA; μ2-myc in AP2 core and hemicomplex) (UniProt P84092)", "test": "anti-FLAG co-IP, Western blot", "settings": "reference: wild type; sites S31,S32", "data": [{"substance": "HPV-16 E7 (from UniProt P03129) S31A/S32A", "values": [{"measurement": "binding against the reference", "result": "weaker"}]}]}
